Holding throughout (assay): protein array
Assay [1] has as its target T1, actinin alpha 1, transcript variant 2 (human, UniProt P12814 1-892).
T1 construct: on protein array; also called ACTN1

For assay [2], the target named is T2, dual specificity phosphatase 12 (human, UniProt Q9UNI6 1-340).
T2 construct: on protein array; also called DUSP12

Assay [3] addresses T3, cyclin dependent kinase 2 associated protein 2, transcript variant 1 (human, UniProt O75956 1-126).
T3 construct: on protein array; also called CDK2AP2
T3 sequence: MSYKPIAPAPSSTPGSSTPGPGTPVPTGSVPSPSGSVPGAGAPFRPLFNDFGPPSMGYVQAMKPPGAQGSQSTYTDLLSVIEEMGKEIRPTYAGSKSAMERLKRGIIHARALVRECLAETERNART

The target in assay [4] is T4, NFKB inhibitor beta, transcript variant 1 (human, UniProt Q15653 1-356).
T4 construct: on protein array; also called NFKBIB
T4 sequence: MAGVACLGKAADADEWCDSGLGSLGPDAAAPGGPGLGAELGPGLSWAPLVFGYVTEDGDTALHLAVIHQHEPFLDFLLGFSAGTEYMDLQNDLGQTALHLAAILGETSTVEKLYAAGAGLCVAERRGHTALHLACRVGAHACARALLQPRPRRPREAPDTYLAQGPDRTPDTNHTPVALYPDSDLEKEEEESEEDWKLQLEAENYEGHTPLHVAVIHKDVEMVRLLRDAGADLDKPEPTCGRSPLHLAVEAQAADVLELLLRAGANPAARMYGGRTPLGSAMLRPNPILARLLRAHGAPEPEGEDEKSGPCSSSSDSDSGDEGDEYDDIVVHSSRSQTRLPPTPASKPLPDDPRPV

For assay [5], the target named is T5, Transforming growth factor beta 3 (human, UniProt P10600 24-412).
T5 construct: on protein array; also called TGFB3
T5 sequence: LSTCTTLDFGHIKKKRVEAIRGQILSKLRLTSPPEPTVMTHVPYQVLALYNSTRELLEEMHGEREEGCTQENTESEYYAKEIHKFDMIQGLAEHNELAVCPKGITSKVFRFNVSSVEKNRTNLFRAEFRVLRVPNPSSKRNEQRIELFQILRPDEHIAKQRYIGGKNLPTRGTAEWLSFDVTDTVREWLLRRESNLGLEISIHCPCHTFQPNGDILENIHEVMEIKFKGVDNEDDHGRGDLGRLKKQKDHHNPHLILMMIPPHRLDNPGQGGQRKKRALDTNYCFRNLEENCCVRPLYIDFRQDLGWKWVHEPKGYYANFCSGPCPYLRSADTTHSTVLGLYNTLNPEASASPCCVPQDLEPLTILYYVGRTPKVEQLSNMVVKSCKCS

Assay [6] has as its target T6, HAUS augmin like complex subunit 1, transcript variant 1 (human, UniProt Q96CS2 1-278).
T6 construct: on protein array; also called HAUS1
T6 sequence: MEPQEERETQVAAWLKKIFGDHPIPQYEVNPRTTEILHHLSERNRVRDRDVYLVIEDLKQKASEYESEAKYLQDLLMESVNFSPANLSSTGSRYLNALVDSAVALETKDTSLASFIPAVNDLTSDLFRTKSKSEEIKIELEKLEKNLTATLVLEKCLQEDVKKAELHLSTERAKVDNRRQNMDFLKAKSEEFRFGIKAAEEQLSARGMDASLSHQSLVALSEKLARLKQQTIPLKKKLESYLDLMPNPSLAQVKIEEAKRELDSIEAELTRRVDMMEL

For assay [7], the target named is T7, calcium and integrin binding 1, transcript variant b (human, UniProt Q99828 2-191).
T7 construct: on protein array; also called CIB1
T7 sequence: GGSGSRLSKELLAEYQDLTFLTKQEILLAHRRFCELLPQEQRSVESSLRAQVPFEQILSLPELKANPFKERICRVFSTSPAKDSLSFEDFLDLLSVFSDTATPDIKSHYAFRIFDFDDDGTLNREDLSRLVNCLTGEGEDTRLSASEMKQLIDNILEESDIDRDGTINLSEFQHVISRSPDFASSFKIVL

The target of assay [8] is T8, zinc finger DHHC-type containing 1, transcript variant 1 (human, UniProt Q8WTX9 1-485).
T8 construct: on protein array; also called ZDHHC1
T8 sequence: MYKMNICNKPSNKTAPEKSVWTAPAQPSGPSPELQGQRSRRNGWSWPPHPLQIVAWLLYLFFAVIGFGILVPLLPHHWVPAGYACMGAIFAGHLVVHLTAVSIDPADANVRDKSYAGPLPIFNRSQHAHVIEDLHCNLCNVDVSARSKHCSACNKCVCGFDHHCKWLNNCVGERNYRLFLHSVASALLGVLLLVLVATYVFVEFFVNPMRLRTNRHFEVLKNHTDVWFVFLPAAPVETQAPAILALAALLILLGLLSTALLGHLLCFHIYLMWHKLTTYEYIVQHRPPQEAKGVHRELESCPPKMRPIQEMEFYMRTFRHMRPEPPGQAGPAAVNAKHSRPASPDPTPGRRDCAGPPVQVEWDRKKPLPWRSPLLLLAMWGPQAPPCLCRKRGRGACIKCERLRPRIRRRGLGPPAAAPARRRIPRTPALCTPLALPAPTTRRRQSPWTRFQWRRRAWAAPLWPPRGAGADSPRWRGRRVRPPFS

The next assay concerns the target T9, chymotrypsinogen B2 (human, UniProt Q6GPI1 19-263).
T9 construct: on protein array; also called CTRB2

T2 sequence (Q9UNI6 whole entry): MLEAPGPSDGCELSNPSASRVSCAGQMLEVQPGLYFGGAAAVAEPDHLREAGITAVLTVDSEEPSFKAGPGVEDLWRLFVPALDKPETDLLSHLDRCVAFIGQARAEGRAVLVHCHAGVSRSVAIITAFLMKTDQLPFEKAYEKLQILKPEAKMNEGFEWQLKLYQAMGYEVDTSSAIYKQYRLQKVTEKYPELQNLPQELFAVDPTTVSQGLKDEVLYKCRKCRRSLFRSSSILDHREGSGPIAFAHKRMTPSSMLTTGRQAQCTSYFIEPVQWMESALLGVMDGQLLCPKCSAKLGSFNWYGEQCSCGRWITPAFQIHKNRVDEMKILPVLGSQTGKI
T9 sequence (Q6GPI1 19-263 limits assumed): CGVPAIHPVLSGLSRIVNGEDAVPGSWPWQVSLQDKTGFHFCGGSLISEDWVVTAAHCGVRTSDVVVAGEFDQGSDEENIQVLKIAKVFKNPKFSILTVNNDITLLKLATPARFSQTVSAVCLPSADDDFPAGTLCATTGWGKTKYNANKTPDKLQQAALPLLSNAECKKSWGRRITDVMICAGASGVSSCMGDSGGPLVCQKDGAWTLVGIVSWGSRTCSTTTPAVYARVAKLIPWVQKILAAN
T1 sequence (P12814 whole entry, change not shown): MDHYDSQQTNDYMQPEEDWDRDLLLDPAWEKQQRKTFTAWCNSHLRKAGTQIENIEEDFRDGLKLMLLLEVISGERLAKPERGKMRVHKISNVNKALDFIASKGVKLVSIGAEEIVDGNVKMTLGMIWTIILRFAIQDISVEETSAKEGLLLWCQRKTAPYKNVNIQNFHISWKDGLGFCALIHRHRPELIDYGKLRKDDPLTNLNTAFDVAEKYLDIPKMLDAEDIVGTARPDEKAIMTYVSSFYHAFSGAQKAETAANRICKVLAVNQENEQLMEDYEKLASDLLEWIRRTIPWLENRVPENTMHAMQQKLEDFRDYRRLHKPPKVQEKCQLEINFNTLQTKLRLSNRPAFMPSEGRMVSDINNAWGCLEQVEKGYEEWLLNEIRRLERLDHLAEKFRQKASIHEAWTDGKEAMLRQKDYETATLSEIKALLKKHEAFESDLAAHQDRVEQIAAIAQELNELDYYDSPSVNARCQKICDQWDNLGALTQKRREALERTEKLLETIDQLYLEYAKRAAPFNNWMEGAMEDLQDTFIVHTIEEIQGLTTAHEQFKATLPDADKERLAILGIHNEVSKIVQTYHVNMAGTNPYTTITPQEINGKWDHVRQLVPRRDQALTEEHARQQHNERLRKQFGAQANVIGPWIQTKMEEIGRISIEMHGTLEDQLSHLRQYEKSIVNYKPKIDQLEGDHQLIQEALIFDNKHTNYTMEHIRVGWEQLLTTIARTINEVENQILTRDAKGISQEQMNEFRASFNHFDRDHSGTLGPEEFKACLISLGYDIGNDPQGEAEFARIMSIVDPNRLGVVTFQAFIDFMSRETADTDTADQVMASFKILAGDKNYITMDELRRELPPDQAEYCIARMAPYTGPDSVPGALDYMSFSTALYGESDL

B1: TBRE1007 (antibody, V domains shown)
VH: QVQLQESGPGLVRPSETLSLTCDVSGYLISSGYYWGWVRQPPGKGLEWIGSVYHSGNAYYNPSLKGRVTMSVDTSKNQFSLKLTSVAAEDTAVYYCAREHRSGYQRYWGQGTLVTVSS
VL: IQMTQSPSSLSASVGDRVTITCRASQAIANSLAWYQQRPGKAPKLLIYAASSLESGVPSRFSGSGSGTDYTLTISSLQPEDFATYYCQQYYINPRTFGQGTKVEIKR
notes: VH/VL only
With B1, the binding result in [1] and in [2] was “binds” each time.

B2: TSTO1005 (antibody, V domains shown)
VH: EVQLVESGGGVVQPGGSLRLSCAASGFTFEDFGMHWVRQAPGKGLEWVAFTRFDGSEKYYVDSVKGRFTVSRDNSKNTLFLHMNSLRPEDTAVYYCAKTRSYSSADTTRPNAPGYWGQGTLVTVSS
VL: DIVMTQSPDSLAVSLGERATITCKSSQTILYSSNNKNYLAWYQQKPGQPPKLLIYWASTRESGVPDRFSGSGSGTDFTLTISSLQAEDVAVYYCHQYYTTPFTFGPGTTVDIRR
notes: VH/VL tied via antigen in summary, not by name in this stretch
On to B2, for which the binding result in assay [3] and in [4] was “binds” each time.

B3: TSTO1003 (antibody, V domains shown)
VH: QVQLKQSGGGVVQPGRSLTLSCVASGLTFSDYGMHWVRQAPGKGLEWVAVIWHDGSKTNYADSVKGRIIISRDNSKSTVYLQMNRLRGEDTAVYYCATSHGGLVPGGENYWGQGTLVTVSS
VL: SDELTQPPSVSVSPGQTARITCSGDALAKEYAYWYQQKSGQAPVLVISKDTERPSGIPARFSGSSSGTTVTLTISGVQSDDEADYYCQSADSSLTYWLFGGGTKLTVLR
notes: as for B2
As for B3, in [5], the binding result is given as “binds”.

B4: TSTO1002 (antibody, V domains shown)
VH: EVQLVESGGGLVKPGGSLRLSCAASGFTFSNAWMNWVRQTPGKGLEWVGRIKTKTDGGTTDYAEPVKGRFTISRDDSKNTLYLQMNSLKTEDTAVYYCTRGAVADYWGQGTQVTVSS
VL: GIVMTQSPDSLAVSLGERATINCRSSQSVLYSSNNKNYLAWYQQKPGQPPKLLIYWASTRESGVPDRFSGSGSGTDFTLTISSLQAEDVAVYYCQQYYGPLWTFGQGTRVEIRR
notes: as for B2
In the case of B4, the binding result in [6] is given as “binds”.

B5: TSTO1001 (antibody, V domains shown)
VH: VVQLLESGGGLVHPGGSLRISCAASEFTFSAYAMTWVRQAPGKGLEWVSAISGSGGRTYYADSLKGRFTISRDNSKHTLYLLMNSLRVEDTAVYYCASRYRSPSGAFDIWGQGTLVTVSS
VL: EIVMTQSPATLSVSQGERATLSCRASQSVGSDLAWYQQKPGQAPRLLIYDASARATDIPARFSGSGSETEFTLTISSLQSEDFAVYYCQHYSDWRALTFGGGTKVEIKR
notes: as for B2
In the case of B5, the binding result in assay [7] is reported as “binds”.

B6: TBLA1003 (antibody, V domains shown)
VH: EVQLVESGGGLIQPGRSLRLSCAASGFTFEDYAMHWVRQAPGKGLEWVSGISWNSGNIGYADSVKGRFTISRDNAKNSLYLQMHSLRPEDTALYYCAKDINFFGLGTGGGAMDVWGQGTTVTVSS
VL: DIQMTQSPSYVSASVGDRVTITCRASQGIDVWLAWYQQKPGKAPKLLIYTASSLQSGVPSRFSGSGGGTEFTLTISSLQPEDFATYYCQQSNSFPGTFGPGTKVDVKR
notes: VH/VL only
For the molecule B6, in [8], the binding result was “binds”.

B7: TSTO1004 (antibody, V domains shown)
VH: QVQLVQSGSELKKPGASVKVSCTSSGYVFTSFGVSWVRQVPGQGPEWMGWISPYTRQTKYAQSLQGRITLTADTSTNTTYMELRSLRSDDTAMYYCVREEFGVVRGPNPFDVWGQGTMVTVSS
VL: DIQMTQAPSTLSASVGDRVSITCRASQNIRDFLAWYQQKPGRAPDLLIYRASTLEKGVSARFSGSGSGTEFTLTITGLQPDDFATYYCQQYSDYSTFGGGTRVEIK
notes: as for B2
Consider B7, for which the binding result with chymotrypsinogen B2 is given as “binds”.
